Test results as given in US9605283B2, “Microorganism modified for the production of 1,3-propanediol” (INSTITUT NATIONAL DES SCIENCES APPLIQUÉES, priority 2012, dated 2017).

B1: Ec-Mdh: (L)-malate dehydrogenase of Escherichia coli, wild-type, SEQ ID No. 124 (protein, listed as Escherichia coli)
chain: MKVAVLGAAGGIGQALALLLKTQLPSGSELSLYDIAPVTPGVAVDLSHIPTAVKIKGFSGEDATPALEGADVVLISAGVARKPGMDRSDLFNVNAGIVKNLVQQVAKTCPKACIGIITNPVNTTVAIAAEVLKKAGVYDKNKLFGVTTLDIIRSNTFVAELKGKQPGEVEVPVIGGHSGVTILPLLSQVPGVSFTEQEVADLTKRIQNAGTEVVEAKAGGGSATLSMGQAAARFGLSLVRALQGEQGVVECAYVEGDGQYARFFSQPLLLGKNGVEERKSIGTLSAFEQNALEGMLDTLKKDIALGEEFVNK
B2: Bs-MdhR87C: B. subtilis malate dehydrogenase mutant R87C, SEQ ID No. 154 (protein, listed as Bacillus subtilis)
chain: MGNTRKKVSVIGAGFTGATTAFLIAQKELADVVLVDIPQLENPTKGKALDMLEASPVQGFDAKITGTSNYEDTAGSDIVVITAGIACKPGMSRDDLVSTNEKIMRSVTQEIVKYSPDSIIVVLTNPVDAMTYAVYKESGFPKERVIGQSGVLDTARFRTFVAEELNLSVKDVTGFVLGGHGDDMVPLVRYSYAGGIPLETLIPKERIDAIVERTRKGGGEIVNLLGNGSAYYAPAASLTEMVEAILKDQRRVLPTIAYLEGEYGYEGIYLGVPTIVGGNGLEQIIELELTDYERAQLNKSVESVKNVMKVLS
B3: Ec-MdhR81A: E. coli malate dehydrogenase mutant R81A, SEQ ID No. 156 (protein, listed as Escherichia coli)
chain: MKVAVLGAAGGIGQALALLLKTQLPSGSELSLYDIAPVTPGVAVDLSHIPTAVKIKGFSGEDATPALEGADVVLISAGVAAKPGMDRSDLFNVNAGIVKNLVQQVAKTCPKACIGIITNPVNTTVAIAAEVLKKAGVYDKNKLFGVTTLDIIRSNTFVAELKGKQPGEVEVPVIGGHSGVTILPLLSQVPGVSFTEQEVADLTKRIQNAGTEVVEAKAGGGSATLSMGQAAARFGLSLVRALQGEQGVVECAYVEGDGQYARFFSQPLLLGKNGVEERKSIGTLSAFEQNALEGMLDTLKKDIALGEEFVNK
B4: Ec-MdhR81A M85Q: E. coli malate dehydrogenase mutant R81A M85Q, SEQ ID No. 158 (protein, listed as Escherichia coli)
chain: MKVAVLGAAGGIGQALALLLKTQLPSGSELSLYDIAPVTPGVAVDLSHIPTAVKIKGFSGEDATPALEGADVVLISAGVAAKPGQDRSDLFNVNAGIVKNLVQQVAKTCPKACIGIITNPVNTTVAIAAEVLKKAGVYDKNKLFGVTTLDIIRSNTFVAELKGKQPGEVEVPVIGGHSGVTILPLLSQVPGVSFTEQEVADLTKRIQNAGTEVVEAKAGGGSATLSMGQAAARFGLSLVRALQGEQGVVECAYVEGDGQYARFFSQPLLLGKNGVEERKSIGTLSAFEQNALEGMLDTLKKDIALGEEFVNK
B5: Ec-MdhR81A M85E: E. coli malate dehydrogenase mutant R81A M85E, SEQ ID No 160 (protein, listed as Escherichia coli)
chain: MKVAVLGAAGGIGQALALLLKTQLPSGSELSLYDIAPVTPGVAVDLSHIPTAVKIKGFSGEDATPALEGADVVLISAGVAAKPGEDRSDLFNVNAGIVKNLVQQVAKTCPKACIGIITNPVNTTVAIAAEVLKKAGVYDKNKLFGVTTLDIIRSNTFVAELKGKQPGEVEVPVIGGHSGVTILPLLSQVPGVSFTEQEVADLTKRIQNAGTEVVEAKAGGGSATLSMGQAAARFGLSLVRALQGEQGVVECAYVEGDGQYARFFSQPLLLGKNGVEERKSIGTLSAFEQNALEGMLDTLKKDIALGEEFVNK
B6: Ec-MdhR81A I12V: E. coli malate dehydrogenase mutant R81A I12V, SEQ ID No. 162 (protein, listed as Escherichia coli)
chain: MKVAVLGAAGGVGQALALLLKTQLPSGSELSLYDIAPVTPGVAVDLSHIPTAVKIKGFSGEDATPALEGADVVLISAGVAAKPGMDRSDLFNVNAGIVKNLVQQVAKTCPKACIGIITNPVNTTVAIAAEVLKKAGVYDKNKLFGVTTLDIIRSNTFVAELKGKQPGEVEVPVIGGHSGVTILPLLSQVPGVSFTEQEVADLTKRIQNAGTEVVEAKAGGGSATLSMGQAAARFGLSLVRALQGEQGVVECAYVEGDGQYARFFSQPLLLGKNGVEERKSIGTLSAFEQNALEGMLDTLKKDIALGEEFVNK
B7: Ec-MdhR81A M85Q I12V: E. coli malate dehydrogenase mutant R81A M85Q I12V, SEQ ID No. 164 (protein, listed as Escherichia coli)
chain: MKVAVLGAAGGVGQALALLLKTQLPSGSELSLYDIAPVTPGVAVDLSHIPTAVKIKGFSGEDATPALEGADVVLISAGVAAKPGQDRSDLFNVNAGIVKNLVQQVAKTCPKACIGIITNPVNTTVAIAAEVLKKAGVYDKNKLFGVTTLDIIRSNTFVAELKGKQPGEVEVPVIGGHSGVTILPLLSQVPGVSFTEQEVADLTKRIQNAGTEVVEAKAGGGSATLSMGQAAARFGLSLVRALQGEQGVVECAYVEGDGQYARFFSQPLLLGKNGVEERKSIGTLSAFEQNALEGMLDTLKKDIALGEEFVNK
B8: Ec-MdhR81A M85E I12V: E. coli malate dehydrogenase mutant R81A M85E I12V, SEQ ID No. 166 (protein, listed as Escherichia coli)
chain: MKVAVLGAAGGVGQALALLLKTQLPSGSELSLYDIAPVTPGVAVDLSHIPTAVKIKGFSGEDATPALEGADVVLISAGVAAKPGEDRSDLFNVNAGIVKNLVQQVAKTCPKACIGIITNPVNTTVAIAAEVLKKAGVYDKNKLFGVTTLDIIRSNTFVAELKGKQPGEVEVPVIGGHSGVTILPLLSQVPGVSFTEQEVADLTKRIQNAGTEVVEAKAGGGSATLSMGQAAARFGLSLVRALQGEQGVVECAYVEGDGQYARFFSQPLLLGKNGVEERKSIGTLSAFEQNALEGMLDTLKKDIALGEEFVNK
B9: Ec-MdhR81A G179D: E. coli malate dehydrogenase mutant R81A G179D, SEQ ID No. 168 (protein, listed as Escherichia coli)
chain: MKVAVLGAAGGIGQALALLLKTQLPSGSELSLYDIAPVTPGVAVDLSHIPTAVKIKGFSGEDATPALEGADVVLISAGVAAKPGMDRSDLFNVNAGIVKNLVQQVAKTCPKACIGIITNPVNTTVAIAAEVLKKAGVYDKNKLFGVTTLDIIRSNTFVAELKGKQPGEVEVPVIGGHSDVTILPLLSQVPGVSFTEQEVADLTKRIQNAGTEVVEAKAGGGSATLSMGQAAARFGLSLVRALQGEQGVVECAYVEGDGQYARFFSQPLLLGKNGVEERKSIGTLSAFEQNALEGMLDTLKKDIALGEEFVNK

Legend:
[1] = DHB dehydrogenase activity of cytosolic enzymes (DHB-dependent reduction of NAD+); type: biochemical
Experimental: Activity of the cytosolic DHB dehydrogenases (Ec-Mdh, Bs-Mdh, Ll-LdhA) was assayed by following the DHB-dependent reduction of NAD^+.
The reaction mixture contained 60 mM Hepes (pH 8), 50 mM potassium chloride, 5 mM MgCl2, 10 mM NAD, (optionally, 5 mM fructose-1,6-bisphosphate (F16bP)) (all products from Sigma), and appropriate amounts of purified enzyme or cell extract. Reactions were started by adding 50 mM (L)-2,4-dihydroxybutyrate (Rhodia).
All enzymatic assays were carried out at 37° C. in 96-well flat bottomed microtiter plates in a final volume of 250 μL. The reactions were followed by the characteristic absorption of NADH at 340 nm (εNADH=6.22 mM^−1 cm^−1) or the absorbtion of DCIP at 655 nm (εDCIP=5.9 mM^−1 cm^−1) in a microplate reader (BioRad 680XR).

[2] = Malate dehydrogenase activity (natural substrate); type: biochemical; settings: for Max. specific activity, malate: activity measured at 50 mM malate, Table 4
[3] = activity measured at 50 mM DHB, Table 4

| Molecule | Max. specific activity, DHB [1, 3] [µmol/mg/min] | Max. specific activity, malate [2] [µmol/mg/min] | other results |
| --- | --- | --- | --- |
| B1 | – | – | DHB dehydrogenase activity (in words) ([1]; cytosolic wild-type enzymes): no measurable DHB dehydrogenase activity; Max. specific activity, DHB ([1]; when not saturated, activity estimated at 50 mM substrate, Table 2): 0 µmol/mg/min; Max. specific activity, Natural substrate ([2]; natural substrate (L)-malate, Table 2): 52.5 µmol/mg/min |
| B2 | 0.06 | 0.13 | maximum activity on DHB ([1]; text of Example 2): 0.06 µmol/mg/min; activity on malate ([2]; text of Example 2): 0.13 µmol/mg/min |
| B3 | 0.3 | 0.12 | – |
| B4 | 2.98 | 0.57 | – |
| B5 | 2.38 | 0.65 | – |
| B6 | 2.5 | 0.66 | – |
| B7 | 7.1 | 0.98 | – |
| B8 | 10.3 | 0.91 | – |
| B9 | 2.1 | 0.52 | – |
